{
  "source": "patent US20160311886A1",
  "about": "“Constructs Binding to Phosphatidylserine and Their Use in Disease Treatment and Imaging” (Board of Regents, The University of Texas System, priority 2005, published 2016)",
  "key": {"Anti-PS ELISA": {"experiment": "Anti-PS ELISA", "assay_type": "binding", "procedure": "The anti-PS ELISA used in the present studies example is conducted as follows. Unless particular differences are specified, this is the format of the ELISA used throughout the studies of the present application.\nThe ELISA of the present example is exemplified using the antigen PS (P-6641 25 mg 10 mg/ml (solvent is Chloroform:MeOH 95:5) in 2.5 ml bottle). Other phospholipids can be used using the same protocol. The PS (or other phospholipids) stock solution should be aliquoted and stored in an airtight container at −30° C. The preferred 96 well plates are Dynatech U bottom Immulon 1 (from Dynatech Labs, Cat#011-010-3550).\nThe standard blocking buffer used in the present example is 10% bovine serum dissolved in PBS. Other blocking solutions are suitable, but any detergents should be excluded from block and wash solutions. The primary antibody is the test sample or admixture. […] The developing solutions are: 10 ml of 0.2M Na2PO4, 10 ml of 0.1M citric acid, one 10 mg tablet of OPD, and 10 μl of hydrogen peroxide. The stop solution is 0.18 M H2SO4.\nThe protocol of the present example entails coating 96-well plate with PS as follows: dilute the PS stock solution in n-hexane to 10 μg/ml and mix well. Add 50 μl to each well and allow this to evaporate for one hour. Add 200 μl of 10% serum (or other blocking buffer) to each well, cover and maintain at room temperature for 2 hours or overnight at 4° C. Wash the plate three times with PBS. Add the primary antibody (dilute in blocking buffer) and incubate for 2 hours at 37° C. Wash three times with PBS. […] Wash the plate three times with PBS. Develop the ELISA by adding 100 μl of developing solution to each of the wells, develop for 10 minutes, then add 100 μl of stop solution to each plate and read the O.D. at 490 nm."}, "[1]": {"experiment": "Phospholipid specificity ELISA", "assay_type": "binding", "procedure": "The specificity of the antibodies was determined by ELISA using plates coated with the following phospholipids: PS, phosphatidylserine; PE, phosphatidylethanolamine; PI, phosphatidylinositol; PA, phosphatidic acid; PG, phosphatidylglycerol; PC, phosphatidylcholine; CL, cardiolipin; and SM, sphingomyelin."}, "[2]": {"experiment": "Serum dependence of binding to PS", "procedure": "The serum dependence or independence of the antibodies is also set forth in Table 2 (see also, Example XXX).\nThe 1B9, 2G7 and 7C5 antibodies behave essentially the same. These antibodies recognize only PS and require serum or serum proteins for binding to PS. The binding of 1B9, 2G7 and 7C5 to various phospholipids in the present example was assayed only in the presence of 10% bovine serum, whereas binding of the other antibodies was tested either in the absence or in the presence of serum."}, "human CMV AD169": {"tested_on": "human CMV AD169", "experiment": "CMV plaque assay after antibody treatment"}, "[3]": {"tested_on": "ABAE cells with exposed PS", "experiment": "Live-cell binding assay on LPC-treated endothelial cells", "assay_type": "cell-based, bovine", "settings": "DMEM+10% FBS", "summary_of_the_method": "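ABAE cells cultured overnight were treated with 200 μM lysophosphatidylcholine to expose PS, then fixed in 4% paraformaldehyde and antibody binding was detected with biotin anti-mouse secondary plus FITC-streptavidin, with DAPI counterstain. Binding area is expressed as FITC/DAPI pixel ratio relative to basal binding, averaged over five 200× images (±SD).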"}, "RSV long strain": {"tested_on": "RSV long strain", "experiment": "RSV plaque assay after antibody treatment", "settings": "MOI of 1"}, "[4]": {"settings": "mouse, in vivo, iv"}, "[5]": {"settings": "MW used for conversion: IgM 900 kDa, IgG 150 kDa, Annexin V 36 kDa, read-out: EC50"}},
  "note": "Where two headings read alike, the source gives them in different places.",
  "data": [
    {"molecule": "Annexin V: High affinity PS binding ligand; natural ligand binding anionic phospholipids and PE", "values": [
      {"measurement": "EC50", "setting": "Anti-PS ELISA; [5]", "value": 2.77, "unit": "nM"},
      {"measurement": "EC50", "setting": "Anti-PS ELISA; dilutions of tissue culture supernatants", "value": 0.100, "unit": "µg/mL"},
      {"measurement": "Affinity vs. 3SB (−fold increased)", "setting": "Anti-PS ELISA; from EC50 in nM", "value": 0.18, "unit": "fold"},
      {"measurement": "Binding vs. 3SB (−fold increased)", "setting": "Anti-PS ELISA; from EC50 in μg/ml", "value": 4.68, "unit": "fold"},
      {"measurement": "Relative Strength of Reactivity on ELISA", "setting": "[1]", "value": "PS = PE = PI = PA > CL > PG"},
      {"measurement": "Serum cofactor?", "setting": "[2]", "value": "No"}
    ]},
    {"molecule": "3G4: Mouse IgG3 kappa monoclonal antibody to PS and anionic phospholipids; binding mediated by β2-glycoprotein I (antibody, listed as Mus musculus) VH: MGWTWIFILILSVTTGVHSEVQLQQSGPELEKPGASVKLSCKASGYSFTGYNMNWVKQSHGKSLEWIGHIDPYYGDTSYNQKFRGKATLTVDKSSSTAYMQLKSLTSEDSAVYYCVKGGYYGHWYFDVWGAGTTVTVSSATTTAPSVYPLVP VL: MDMRAPAQILGFLLLLFPGTRCDIQMTQSPSSLSASLGERVSLTCRASQDIGSSLNWLQQGPDGTIKRLIYATSSLDSGVPKRFSGSRSGSDYSLTISSLESEDFVDYYCLQYVSSPPTFGAGTKLELKRADAAPTVFIFGRIP", "values": [
      {"measurement": "inhibitory effect on viral titer", "setting": "human CMV AD169; high m.o.i., addition delayed to 48 hours", "value": 2, "unit": "log10"},
      {"measurement": "decrease in viral titer", "setting": "human CMV AD169; high m.o.i., addition up to 24 hours after infection", "value": "5-6 log10"},
      {"measurement": "inhibition of viral replication vs GV39G", "setting": "human CMV AD169; m.o.i. of 3, 50 μg/ml", "value": 3, "unit": "logs"},
      {"measurement": "decrease in viral titer vs GV39G", "setting": "human CMV AD169; m.o.i. of 3, 100 μg/ml", "value": 5, "unit": "log10"},
      {"measurement": "decrease in viral titer vs GV39G", "setting": "human CMV AD169; m.o.i.=0.01, 50 μg/ml", "value": 3.5, "unit": "log10"},
      {"measurement": "inhibition of viral replication", "setting": "human CMV AD169; m.o.i.=0.01, 100 μg/ml", "value": "approximately 99.9999%"},
      {"measurement": "decrease in viral titer vs GV39G", "setting": "human CMV AD169; m.o.i.=0.01 pfu/cell, 100 μg/ml", "value": 6, "unit": "log10"},
      {"measurement": "binding to LPC-treated ABAE cells", "setting": "[3]; 20 nM", "value": "bound to LPC-treated ABAE cells"},
      {"measurement": "increase in area of binding upon LPC-treatment", "setting": "[3]; 200 μM LPC", "value": "greater than 500 fold"},
      {"measurement": "EC50", "setting": "Anti-PS ELISA; [5]", "value": 0.266, "unit": "nM"},
      {"measurement": "decrease in viral titer", "setting": "RSV long strain", "value": 2, "unit": "log10"},
      {"measurement": "Volume of distribution", "setting": "[4]", "value": 0.1, "unit": "L/kg"},
      {"measurement": "half-life in the α-phase of clearance", "setting": "[4]", "value": 3, "unit": "h"},
      {"measurement": "half-life in the β-phase of clearance", "setting": "[4]", "value": 120, "unit": "h"},
      {"measurement": "activation of endothelial cells", "setting": "HUVECs", "value": "does not activate resting HUVECs or HUVECs pre-activated with low concentrations of LPS"},
      {"measurement": "binding specificity profile", "setting": "[1]", "value": "PS=PA=PI=PG>CL>>PE"},
      {"measurement": "Serum cofactor?", "setting": "[2]", "value": "β2-glycoprotein I and Yes,"}
    ]}
  ]
}
